The source of these data is patent publication US20080038265A1 (published 2008).

For orientation: EC50 (read off the curve) means the concentration at which the effect is half-maximal.

The labels stand for the following.
T1: soluble EpoR (EposR) (human, UniProt P19235 25-250, limits assumed)
T1 construct: Test antigen in BIAcore and in yeast display assays; also called soluble recombinant human EpoR
T1 sequence (looked up): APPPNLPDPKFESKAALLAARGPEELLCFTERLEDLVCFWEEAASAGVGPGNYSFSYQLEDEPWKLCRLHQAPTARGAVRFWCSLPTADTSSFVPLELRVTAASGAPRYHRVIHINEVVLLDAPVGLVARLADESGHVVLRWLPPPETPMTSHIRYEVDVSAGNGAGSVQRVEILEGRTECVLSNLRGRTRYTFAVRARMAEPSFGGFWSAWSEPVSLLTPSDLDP

B1: Ab12.118 (antibody, IgG2, V domains shown)
VH: QVQLQESGPGLVKPSETLSLTCTVSGASISSYYWSWIRQPPGKGLEWIGYIGYSGSTNYNPSLKSRVTISVDTSKNQFSLKLRSVTAADTAVYYCARERLGIGDYWGQGTLVTVSS
VL: DIQLTQSPSSLSASVGDRVTITCRASQGIRNDLGWYQQKPGKAPKRLIYAASSLQSGVPSRFSGSGSGTEFTLTISSLQPEDFATYYCLQHNTYPPTFGQGTKVEIK
B2: Ab12.121 (antibody, IgG2, V domains shown)
VH: QVQLQESGPGLVKPSETLSLTCTVSGASISSYYWSWIRQPPGKGLEWIGYIGGSGSTNYNPSLKSRVTISVDTSKNQFSLKLRSVTAADTAVYYCARERLGIGDYWGQGTLVTVSS
VL: DIQLTQSPSSLSASVGDRVTITCRASQGIRNDLGWYQQKPGKAPKRLIYAASSLQSGVPSRFSGSGSGTEFTLTISSLQPEDFATYYCLQHNTYPPTFGQGTKVEIK
B3: Ab12 (antibody, human IgG2, V domains shown)
VH: QVQLQESGPGLVKPSETLSLTCTVSGASISSYYWSWIRQPPGKGLEWIGYIYYSGSTNYNPSLKSRVTISVDTSKNQFSLKLRSVTAADTAVYYCARERLGIGDYWGQGTLVTVSS
VL: DIQLTQSPSSLSASVGDRVTITCRASQGIRNDLGWYQQKPGKAPKRLIYAASSLQSGVPSRFSGSGSGTEFTLTISSLQPEDFATYYCLQHNTYPPTFGQGTKVEIK
B4: Ab12.123 (antibody, IgG2, V domains shown)
VH: QVQLQESGPGLVKPSETLSLTCTVSGASISSYYWSWIRQPPGKGLEWIGYIGYEGSTNYNPSLKSRVTISVDTSKNQFSLKLRSVTAADTAVYYCARERLGIGDYWGQGTLVTVSS
VL: DIQLTQSPSSLSASVGDRVTITCRASQGIRNDLGWYQQKPGKAPKRLIYAASSLQSGVPSRFSGSGSGTEFTLTISSLQPEDFATYYCLQHNTYPPTFGQGTKVEIK
B5: Ab12.56 (antibody, IgG2, V domains shown)
VH: QVQLQESGPGLVKPSETLSLTCTVSGASISSYYWSWIRQPPGKGLEWIGYIAGTGSTNYNPSLKSRVTISVDTSKNQFSLKLRSVTAADTAVYYCARERLGIGDYWGQGTLVTVSS
VL: DIQLTQSPSSLSASVGDRVTITCRASQGIRNDLGWYQQKPGKAPKRLIYAASSLQSGVPSRFSGSGSGTEFTLTISSLQPEDFATYYCLQHNTYPPTFGQGTKVEIK
B6: Ab12.122 (antibody, IgG2, V domains shown)
VH: QVQLQESGPGLVKPSETLSLTCTVSGASISSYYWSWIRQPPGKGLEWIGYIYGEGSTNYNPSLKSRVTISVDTSKNQFSLKLRSVTAADTAVYYCARERLGIGDYWGQGTLVTVSS
VL: DIQLTQSPSSLSASVGDRVTITCRASQGIRNDLGWYQQKPGKAPKRLIYAASSLQSGVPSRFSGSGSGTEFTLTISSLQPEDFATYYCLQHNTYPPTFGQGTKVEIK
B7: Ab12.120 (antibody, IgG2, V domains shown)
VH: QVQLQESGPGLVKPSETLSLTCTVSGASISSYYWSWIRQPPGKGLEWIGYIYYEGSTNYNPSLKSRVTISVDTSKNQFSLKLRSVTAADTAVYYCARERLGIGDYWGQGTLVTVSS
VL: DIQLTQSPSSLSASVGDRVTITCRASQGIRNDLGWYQQKPGKAPKRLIYAASSLQSGVPSRFSGSGSGTEFTLTISSLQPEDFATYYCLQHNTYPPTFGQGTKVEIK
B8: Ab12.6 (antibody, V domains shown)
VH: QVQLQESGPGLVKPSETLSLTCTVSGASISSYYWSWIRQPPGKGLEWIGYIGGEGSTNYNPSLKSRVTISVDTSKNQFSLKLRSVTAADTAVYYCARERLGIGDYWGQGTLVTVSS
VL: DIQLTQSPSSLSASVGDRVTITCRASQGIRNDLGWYQQKPGKAPKRLIYAASSLQSGVPSRFSGSGSGTEFTLTISSLQPEDFATYYCLQHNTYPPTFGQGTKVEIK
B9: Ab12.119 (antibody, IgG2, V domains shown)
VH: QVQLQESGPGLVKPSETLSLTCTVSGASISSYYWSWIRQPPGKGLEWIGYIYGSGSTNYNPSLKSRVTISVDTSKNQFSLKLRSVTAADTAVYYCARERLGIGDYWGQGTLVTVSS
VL: DIQLTQSPSSLSASVGDRVTITCRASQGIRNDLGWYQQKPGKAPKRLIYAASSLQSGVPSRFSGSGSGTEFTLTISSLQPEDFATYYCLQHNTYPPTFGQGTKVEIK
B10: Ab12 41/WT (scFv)
scFv displayed on yeast: GENKVEYAPALMALSQVQLQESGPGLVKPSETLSLTCTVSGASISSYYWSWIRQPPGKGLEWIGYIYYSGSTNYNPSLKSRVTISVDTSKNQFSLKLRSVTAADTAVYYCARERLGIGDYWGQGTLVTVSSGGGGSGGGGSGGGGSDIQLTQSPSSLSASVGDRVTITCRASQGIRNDLGWYQQKPGKAPKRLIYAASSLQSGVPSRFSGSGSGTEFTLTISSLQPEDFATYYCLQHNTYPPTFGQGTKVEIK
notes: also called Ab12 scFv construct with linker 41 in the tether position and the Gly/Ser linker (WT) in the scFv linker position

The first experiment deals with human erythropoietin receptor on human erythroleukemic cells (UT-7/Epo, F36E) (human), P19235. Nature of the experiment: cell-based or functional assay.
human erythropoietin receptor on human erythroleukemic cells (UT-7/Epo, F36E) (human), P19235, sequence (P19235 25-508, stated change not applied): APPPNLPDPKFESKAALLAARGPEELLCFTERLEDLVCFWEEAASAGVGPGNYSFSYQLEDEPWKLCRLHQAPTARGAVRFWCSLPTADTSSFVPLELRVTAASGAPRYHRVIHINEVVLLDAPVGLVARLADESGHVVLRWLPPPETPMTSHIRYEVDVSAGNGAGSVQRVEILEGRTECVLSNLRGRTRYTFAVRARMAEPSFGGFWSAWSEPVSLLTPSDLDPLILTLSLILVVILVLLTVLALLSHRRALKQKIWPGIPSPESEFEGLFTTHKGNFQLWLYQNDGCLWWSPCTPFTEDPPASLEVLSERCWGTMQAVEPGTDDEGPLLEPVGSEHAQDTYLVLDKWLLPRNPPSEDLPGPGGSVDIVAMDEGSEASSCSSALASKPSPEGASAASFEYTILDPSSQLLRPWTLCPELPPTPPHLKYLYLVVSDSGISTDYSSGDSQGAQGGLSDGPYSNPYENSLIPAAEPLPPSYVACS
B1 gave an EC50, cell proliferation assay of 1.13 nM and an Emax, cell proliferation assay of 2.65 absorbance.
In the same order, the values of B2 are 0.465 nM and 2.3 absorbance.
For B3, the EC50, cell proliferation assay was 1.29 nM and the Emax, cell proliferation assay came out at 1.98 absorbance.
In the same order, the values of B4 are 0.91 nM and 2.7 absorbance.
Consider B5, for which the EC50, cell proliferation assay came out at 1.17 nM and the Emax, cell proliferation assay turned out to be 2.51 absorbance.
For B6, the EC50, cell proliferation assay came out at 0.42 nM and the Emax, cell proliferation assay turned out to be 2.4 absorbance.
In the same order, the values of B7 are 0.34 nM and 2 absorbance.
The matching figures for B8: 0.58 nM and 2.81 absorbance.
In turn, B9 returned an EC50, cell proliferation assay of 1.34 nM and an Emax, cell proliferation assay of 2.53 absorbance.

For another experiment, the target named is T1, soluble EpoR (EposR). The experiment in a line: yeast surface display, flow cytometry: equilibrium titration of scFv-displaying yeast with soluble EpoR at 37 C, bound EposR detected with MAB307 + anti-mouse RPE. For orientation: Flow cytometry measures light scatter and fluorescence of single cells or particles in a stream.
Description: Functional cell surface protein expression was compared by incubating the transformed yeast with increasing concentrations of soluble EpoR (EposR) at 37° C.
In the case of B10, the half-maximal effective concentration (EC50 (read off the curve)) is about 6 nM.
